In US20240011031, “COMPOSITIONS COMPRISING A NUCLEASE AND USES THEREOF” (Arbor Biotechnologies, Inc., published 2024):

Experiments:
[1] = molecular target: T1, Effector SEQ ID NO: 2 (CLUST.200916 nuclease); experiment: GFP fluorescence depletion in IVTT, 37 C, 12 h; PAM 5'-TCCT-3'
T1 chain: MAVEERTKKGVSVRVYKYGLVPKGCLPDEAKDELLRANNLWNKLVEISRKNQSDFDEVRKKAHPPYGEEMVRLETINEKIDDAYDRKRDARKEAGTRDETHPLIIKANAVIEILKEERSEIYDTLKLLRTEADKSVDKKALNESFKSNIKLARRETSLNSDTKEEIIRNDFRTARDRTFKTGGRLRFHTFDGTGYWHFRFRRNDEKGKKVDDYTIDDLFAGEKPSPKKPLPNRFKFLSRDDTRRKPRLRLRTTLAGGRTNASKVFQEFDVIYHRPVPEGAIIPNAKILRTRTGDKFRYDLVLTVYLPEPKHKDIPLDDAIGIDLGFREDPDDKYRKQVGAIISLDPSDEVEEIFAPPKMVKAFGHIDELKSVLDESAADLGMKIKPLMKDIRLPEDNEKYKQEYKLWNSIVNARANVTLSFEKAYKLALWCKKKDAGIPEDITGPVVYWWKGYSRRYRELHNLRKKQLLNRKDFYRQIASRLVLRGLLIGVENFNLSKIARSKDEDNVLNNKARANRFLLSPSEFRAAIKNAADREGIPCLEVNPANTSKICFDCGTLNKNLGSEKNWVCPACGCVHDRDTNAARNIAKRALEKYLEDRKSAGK
From the text: (§1) In this assay, an active CRISPR system designed to target GFP binds and cleaves the double-stranded DNA region encoding GFP, resulting in depletion of GFP fluorescence. The FDA assay involves in vitro transcription and translation, allowing production of an RNP from a DNA template encoding a CLUST.200916 effector and a DNA template containing a pre-crRNA sequence under a T7 promoter with direct repeat (DR)-spacer-direct repeat (DR); the spacer targeted GFP. In the same one-pot reaction, GFP and RFP were also produced as both the target and the fluorescence reporter (FIG. SA). The target GFP plasmid sequence is set forth in SEQ ID NO: 205, and the fluorescence reporter RFP plasmid sequence is set forth in SEQ ID NO: 206. GFP and RFP fluorescence values were measured every 20 min at 37° C. for 12 hr, using a TECAN Infinite F Plex plate reader. Since RFP was not targeted, its fluorescence was not affected and was therefore used as an internal signal control.
(§2) GFP signal was normalized to RFP signal, then the average fluorescence of three technical replicates was taken at each time point. GFP fluorescence depletion was then calculated by dividing the GFP signal of an effector incubated with a non-GFP targeting RNA guide (which instead targets a kanamycin resistance gene) by the GFP signal of an effector incubated with a GFP targeting RNA guide. […]

[2] = molecular target: T1, Effector SEQ ID NO: 2 (CLUST.200916 …); experiment: GFP fluorescence depletion in IVTT, 37 C, 12 h; PAM 5'-ACCG-3'
From the text: as §1, §2

[3] = molecular target: T1, Effector SEQ ID NO: 2 (CLUST.200916 …); experiment: GFP fluorescence depletion in IVTT, 37 C, 12 h; PAM 5'-CCCA-3'
From the text: as §1, §2

[4] = molecular target: T1, Effector SEQ ID NO: 2 (CLUST.200916 …); experiment: GFP fluorescence depletion in IVTT, 37 C, 12 h; PAM 5'-TCCA-3'
From the text: as §1, §2

[5] = molecular target: T1, Effector SEQ ID NO: 2 (CLUST.200916 …); experiment: GFP fluorescence depletion in IVTT, 37 C, 12 h; PAM 5'-CCCG-3'
From the text: as §1, §2

B1: pre-crRNA GFP Target 4 ; GFP Target 4 (ssRNA ; dsDNA)
RNA: GGUAUAACGACCCUGCGAAGUGGGGUGUAACUUCGACUGAUGUGGCUCGGGUACUUGGCGAAACACUGUAUAACGACCCUGCGAAGUGGGGUGUAACUUCGACCUAACCCCUCUCUAAACGGAGGGGUUU
DNA 1: TGATGTGGCTCGGGTACTTGGCGAAACACT
DNA 2: AGTGTTTCGCCAAGTACCCGAGCCACATCA
In the case of B1, the activity [1] is reported as over 1 depletion ratio.

B2: pre-crRNA GFP Target 2 ; GFP Target 2 (ssRNA ; dsDNA)
RNA: GGUAUAACGACCCUGCGAAGUGGGGUGUAACUUCGACAAAAACUGGUUACCAAAUGCAGCCAAAUGAGUAUAACGACCCUGCGAAGUGGGGUGUAACUUCGACCUAACCCCUCUCUAAACGGAGGGGUUU
DNA 1: AAAAACTGGTTACCAAATGCAGCCAAATGA
DNA 2: TCATTTGGCTGCATTTGGTAACCAGTTTTT
Binder B2 has an activity [2] of over 1 depletion ratio.

B3: pre-crRNA GFP Target 1 ; GFP Target 1 (ssRNA ; dsDNA)
RNA: GGUAUAACGACCCUGCGAAGUGGGGUGUAACUUCGACAGAGCGUACCAUCAGCUUCGAAGGCGACGGGUAUAACGACCCUGCGAAGUGGGGUGUAACUUCGACCUAACCCCUCUCUAAACGGAGGGGUUU
DNA 1: AGAGCGTACCATCAGCTTCGAAGGCGACGG
DNA 2: CCGTCGCCTTCGAAGCTGATGGTACGCTCT
B3 showed an activity [3] of over 1 depletion ratio.

B4: pre-crRNA GFP Target 5 ; GFP Target 5 (ssRNA ; dsDNA)
RNA: GGUAUAACGACCCUGCGAAGUGGGGUGUAACUUCGACUGACGGCAUUGACGGAAGGUGCAAAACUGUGUAUAACGACCCUGCGAAGUGGGGUGUAACUUCGACCUAACCCCUCUCUAAACGGAGGGGUUU
DNA 1: TGACGGCATTGACGGAAGGTGCAAAACTGT
DNA 2: ACAGTTTTGCACCTTCCGTCAATGCCGTCA
For B4, the activity [4] was over 1 depletion ratio.

B5: pre-crRNA GFP Target 3 ; GFP Target 3 (ssRNA ; dsDNA)
RNA: GGUAUAACGACCCUGCGAAGUGGGGUGUAACUUCGACUAGUGCAGAUGUAUUUCGCUUUAAUGGUACGUAUAACGACCCUGCGAAGUGGGGUGUAACUUCGACCUAACCCCUCUCUAAACGGAGGGGUUU
DNA 1: TAGTGCAGATGTATTTCGCTTTAATGGTAC
DNA 2: GTACCATTAAAGCGAAATACATCTGCACTA
B5 showed an activity [5] of over 1 depletion ratio.
